Target: apo-LgnD-C1-T1-C2 tridomain (truncated LgnD)
Assay: ITC; LgnA (125 µM) titrated into LgnD or truncated LgnD (25 µM), also into LgnB (concentrations for LgnB not told); thirteen 3 µL injections, 25 °C; one set binding model; MicroCal PEAQ-ITC

Kd: 1700 nM
Substance: LgnA, type II thioesterase (TEII) orthologue (enzyme)

Source: publication PMC8748450
